The series in a line: soluble fraction after stress (log2 fold change); higher = more stays soluble; pooled small domains, quantitative proteomics. The following applies: stress: 50 degC. The gist of the method: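 The measure of aggregation propensity here is the base-two logarithm of the fold change in the soluble amount of each protein after stress. A higher value means more of that protein stays in solution. Stress was applied at 50°C to pooled libraries of small protein domains, read out by high-throughput quantitative proteomics.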
For “HMREVSPEDLALMRRIDAWHLEHPFAGARLLRDLLRPEGFQAGRRHIGTLMARMGIEALYRK”, the “soluble fraction (log2)” value is -0.458. “HMREYVGLSPFNKEKTPSFYVNDEKGQFFDFSSGKNGDLITFLQETERLTFMEAVERLAAEAGLPMPA”: the “soluble fraction (log2)” value is -0.491. For “HMRFANGHLIWDTIIELRNAERRINRRALADLTGLKPGVVDDHVERWIEKDQLRRAGNGELEVV” the value was -0.943; for “HMRFMRVSQSKSKNSTSLYIIESVYTKDNKHTTRIVKKLGTVEELSKEHEDPLAWAKEVAKQMTEEAEQN”, -0.347; for “HMRFNIGNVIEHYKLNTEDLAKVLFPTVKYPKQAFDRVLKGEANLDVIQLERLANHIGVLVTDLF”, -0.196. In the case of “HMRFQGKISDWNDEKGYGFVEPNGGGTRAFVHIKSFTDLPRRPINGDIIIYETTTDEKNRVQANNISFTR” it was 0.0181. For “HMRFSYLNIETRKDISSLINKSEITHSSYNNNEYLYKIKSKKTDDFKDLISLIDEKDLISYSIDS” the value was -0.838; for “HMRFTVSDKMDMLLKSLSAGQSMPFKSLFASASTKSEVIVTFLALLELMKLNQFVVWQDQILGEIEIERR”, -0.554; for “HMRGDQLREHLLWTAKDVFLELGFERASMDAVAARAETSKRSLYAHFESKEKLFLAVIDLVRG”, -3.67. In the case of “HMRGESFSTLVSILQEMSARKAAQVLNGLSEGLAVEVLRALPSDVAGDILGRMDAAKAAALMEQLST”, the “soluble fraction (log2)” value is -0.17. Take “HMRGGLATLTPRERQVLALMAEGRSNAGIAAELVVSGGAVEKHVASIFTKLGLPPDESDNRRVLAVLRHLG”: the “soluble fraction (log2)” value was -0.661.

As for “HMRGHASVEIKRIVYKYKLTDQELAKITGMKASDFPIYHDHLQLILPKRYWARVLDALQNYEKEHES”, the “soluble fraction (log2)” value was -4.18.

Take “HMRGINDLSLVDPQGRIRKDGEQYVVAFGRHKGKEISQIISQDPSYLNWLLSPKGIEDDATRELIRTQYS”: the “soluble fraction (log2)” value is -0.0415. “HMRGPTIELLIQKSALYEELDDSENALKEILKAFDRDSLNSDVLNRLVNLLLNDKQIDRAENYNQLLIEK”: the “soluble fraction (log2)” value is -0.32. For “HMRGPVRLDLPVSGLSRSSGPALAKILQAVPGVHKAHVNVRSGKATLEYDPARAKVTDFVEVIRSAGFGT” the value was -0.0414; for “HMRGQGRILAMLKIQPEIATKDLAYLLGIRQQSLNELLKKLEKNSYVERRPSEKDRRVMVVHLTEKGKE”, -0.715.

On to “HMRGQLADLWLPREQARRAAEIVAARPVPLGSVKTWIARGKLAPRKTGTGPALYRVGALVSLLAKS”, for which the “soluble fraction (log2)” value is -1.67. Consider “HMRGVNEISYTTLISEVSGGNVRDVVISGDEITGTFNDGSRFHSFSPDDPQFIERLNDQGVIINVKPL”, for which the “soluble fraction (log2)” value was -0.0829. In the case of “HMRHDSEGYYRLIGVPPDADDAELKEAAKKRLMEAHPDHGGSEDEFVEVYRAYRTLTDPSARAEYDARP”, the “soluble fraction (log2)” value was 0.307. In the case of “HMRHEDLSPAQKAAALVVAVGSENAAQVLRHLSEEEVEILAGEVARLGEVDPDVVDSVMREVYEQMMGH”, the “soluble fraction (log2)” value was -0.423.

Take “HMRHKSNRRLTAAHQIEQQIQKLLMENTMEAKELKESLNFAAKDIDTVLSWLVDKDKVRINAINQYYWT”: the “soluble fraction (log2)” value is -0.767.

For the sequence “HMRHRITEKDKQFRIGQQVWHSEYGKGMVLSVDGIGSSARLTVSFVSGKLAKIIGTFVSTEP”, the “soluble fraction (log2)” value is -1.68. For “HMRIETLESLANRLAYKAYRTGRKVELEPMNPFERRVIHTALQNSKYATTESEGEDMNRHIVIVPKEGG” the value was -0.0606; for “HMRILGIDPGSVVTGYGVIDKSGNYLRHVLHGEIKPHKGYLLSEVLMDIFSKLSAVIVETNPQSV”, -0.0179. For “HMRINIVKSKNAEQLYIIHSYRINGKNTSKIYKKLGTMADLLPLHNHDRDQVLAWAKEQARLATEQYDQEN”, the “soluble fraction (log2)” value is -0.855. With “HMRIQLNFSDQLLDDVMSEALKHIDRKSQEHHIEKQMDDEFMLVYIDARLIIQVIVNIINNAIKY”, the “soluble fraction (log2)” value is -0.00268. With “HMRITEGEIVEIQEGDNRALVGVGEKLEGIISLDEIRGADGKLLFNVGDKITVMVMGHYNERPK”, the “soluble fraction (log2)” value stood at 0.15. Regarding “HMRITRREQQVLHLLAMGMTTREIAGHINLTERTVRNRISNLRDKLGAQTASQLLAKAVAQGLIEP”, the “soluble fraction (log2)” value was -2.02. “HMRIVSGRESMLGRTVVVADWAGERGHVVVDGERWNAVASTPLAAGRRARIVGIDGLTLSVSPDDKP”: the “soluble fraction (log2)” value turned out to be 0.216. “HMRKAERHLLIKQVIDEFTIRTQEELLAKLSDYGVNATQATISRDIRDLKIVKAPDENGISRFVFF”: the “soluble fraction (log2)” value was -0.964. Take “HMRKGDDRLRAQVDEYISKQGNNTFNYKQVAHAINATSPISQRAVALYLAELAFDGDLLETAPGRYKSPSR”: the “soluble fraction (log2)” value is 0.0382. On to “HMRKIKDVLRLKLHAGLSHERVAASLNISKGVVAKYTSLAAAAGLDWPTVERLSEAALERRLV”, for which the “soluble fraction (log2)” value was -0.135.

“HMRKIKEVLRLKFETGFSHERIAAAVGVSKGAVTKYVQRAVAAGLGWPLAPERDDAALEALLFPH”: the “soluble fraction (log2)” value is ≥ 0.62.

Turning to “HMRKLDQRLAGLLLGKGRLVKATHQQLADELGSVREMVSRLLKGFAEHDLVRMSREQIEIVDAAGLRKLAD”, the “soluble fraction (log2)” value was -1.33. In the case of “HMRKPDLTSVRTLIRSVSKLARHLKISPNGIYRWISVNRIPGAHVVKVANYYDVEIRDLVHLTGSD” it was -1.39; in that of “HMRLADHVVEKLLALVQDRGLQPGQKLPAERQLAEELGVSRTSVREAIQKLTSQGVLSARRGDGTYLQS”, 0.0556; in that of “HMRLARPLTPTEERVLRLLASDMSNAKIGEVLGIRLPTVKSHVSHIMQKLGVTSRAKARTAAQQLGI”, -0.887. Turning to “HMRLDPENFYIRAVTYYRNGDWQRALSQLDEAIKLGTAIEYPALQARIYLEQGMRDEFIAASEK”, the “soluble fraction (log2)” value was -1.71. In the case of “HMRLDVALRGVLLDGDPTQSRAFVLVSGTTSTYRLGETVQSAELVAINADTITLRTETGLHVIGFDGLI” it was -2.48; in that of “HMRLEYLVDVEEISIKEYLMLLGLSRRLARKIKLYGKMYINHQEAFNYHLVKKGDLLTIEFDE”, -2.55; in that of “HMRLIDVFELSPKNRTVLQLYYYEGYSVTEISKILKISVNGVTSRLSRARSKLKLEMEAAENE”, -0.316. In the case of “HMRLMLITPTEFDEAAEIADNLKDRRAVLMNVEKTDNETARRLIDFLSGVVYALGGKIMRISAQAYVLT” it was -0.236; in that of “HMRLPNGYGGVTKLSGRRRKPYMVRKTIGWHIDEKTDKKVQDYVVIGYAATKSEALQMLADYNNNPFDV”, -3.2; in that of “HMRLSVVDLQDSLRGLEYPAGKGDLINHAREHNASADVIAVLEQFSERTYRSAADVGEEFGRV”, 0.111. For “HMRLTIAQLSEKTGVPERTIRYYIDRGLVPSAHGERRGAWYDTVHLEPLLRIQQWREAGLSLEAIADLLR” the value was -1.19. Consider “HMRMLLEERLDEIVKIVNERGSISNQELVKMFGASESTIRRDITTLANDNRVIRVHGGAMSVVS”, for which the “soluble fraction (log2)” value is -0.0564.

Regarding “HMRMTLKNKVEDIVHILRKDKQTSLSAILGDNTDRIQTIVVFLAILELVKQHLIKTDQNANFGDINLFPED”, the “soluble fraction (log2)” value was -0.0677.

On to “HMRNLFWTEAQNAQNELNAMRINALTQSIRRIEPNFRGIPSLRDPNRPIPNEEVRDYENYLNRILP”, for which the “soluble fraction (log2)” value was 0.119. For “HMRNMRKLWIARINAAARMNDISYSKLMHGLKLANVEINRKMLSEMAIDDPKSFTALVETAKKALNG” the value was -0.894; for “HMRNPLYAQVADYVMQQIAAGTYRPHQAIPTEWQLAKKLEVSQGTVRKGLDELVFKQILYRQQGVGTFVAD”, -1.19.

As for “HMRPAAELGLPHAPKHFIQYLTEDDRPQVLKDVDYEGGMGVSIGRLREDSIFDWKFVGLAHNTL”, the “soluble fraction (log2)” value was 0.062. For the sequence “HMRPADTAAMLKYLSSGAVKGIGGALAGRIIEAFGDESIKVIEEDPARLATVKGITLKKAKEISEEMQRVN”, the “soluble fraction (log2)” value stood at 0.0712. On to “HMRPEFVVALSGADLGKLHRLYELGEVLSREDDAEGVTHAVLRVPDKHEHAFHAEFPQARPM”, for which the “soluble fraction (log2)” value turned out to be 0.378. As to “HMRPIDEVFGFFSRPENLTVITPSNLHFNILTPRPLEMKQGAVIDYTIKIFKVPIHWRTLITTYDPPFKFV”, the “soluble fraction (log2)” value was -0.288. For the sequence “HMRPILTLEEAKAKALAHAGLKADQVTFTEAKLDWDDGKQVYDIEFYTADFKEYDYEIDAKTGEVLEVDY”, the “soluble fraction (log2)” value was -0.452. For the sequence “HMRPKAIFVDVDDTLVRSVGQTRIPMPAVIAHIRRLHDAGHQLYLWSSGGADYARASAEELGIGQYFQAFL”, the “soluble fraction (log2)” value was -0.26. For the sequence “HMRPRWTEQEVERAKAIKMIYPNAYRLESSDVFVQVWSKEEILLAHVEVDMFPSLRPGQPVELDEIIG”, the “soluble fraction (log2)” value amounted to 0.103. As for “HMRPTAWDQISDWLDRHGSIANADVVRIAGLDTLKASKLLTTWREQGLLEPLPGRGKRNMAYVRAI”, the “soluble fraction (log2)” value was -0.554. For “HMRPTVNETQIREVFRSILGREVDPEGLRHYLGQAAKGWSIDQIRADVNNSQEAHQRRAELARQAEELK” the value was 0.181; for “HMRQDEKTLLYWIAGHLKREGRQITERSARHLVEQVGTDMENLSREMEKLIAYTMGRTEITGQDIDDI”, -1.68. Take “HMRQEIIEDSRKLLEESLKRYDLTYQEFIDTLKSKNMNVESTLINIIKNQSSLDLVLRNLGLIAP”: the “soluble fraction (log2)” value was -0.0959. With “HMRQISDPTALASMVDKVIEDNPSAVADYRRGESKALGFLIGRVMQSSGGKANPKMIRGLLVKNLES”, the “soluble fraction (log2)” value is -0.0922.

“HMRQMIIIMQKQAAASSVAAVVEFIRSKGLREHISPGAERTIIGAVGDERVFLPQELESLPQVERAIRVL”: the “soluble fraction (log2)” value is -1.14. On to “HMRQPAAVEYSTFLDWVHASQVERVVFEGDTIRGVRVTGEGFVTYSPETDNTALIGELKKSRVQISATAP”, for which the “soluble fraction (log2)” value is -0.153. In the case of “HMRQQAFWALVPEERDVLDETGAPLFRIGPTAWALVIEDRGEVFVVRDEDGRVGYLHEVDGVTR” it was -1.52.

As for “HMRQQLAEILQKAVDNLPEAQRLVWLLRDKSDMTFKEIAEDLQLTEANVRVLLHRARLKLLAVINQYEE”, the “soluble fraction (log2)” value is -1.38. In the case of “HMRQYKEMPYRLFLIHLGKGLVDEVELSDKAKLTGKLKNGKIFITDNPRTENFKEQLLLHDVKVKEG” it was 0.12; in that of “HMRQYTPEQLETAVLVLEEVRQGRRLDRALRSHPMPDGRLIAKHVLVAAYRKLVAEGTWKEDPEFLSRIRM”, -0.237. Take “HMRRADRLLQLIQILRRHRRPVTGDVMARELEVSLRTVYRDIATLTIEGVPIRGEAGVGYVLGEGY”: the “soluble fraction (log2)” value was -2.39.

For the origin of these results see the domain aggregation screens of Martell et al. (2025).
